Numbered stars: 1 amine (or outer) side, 2 acyl side, 3 side chain; on linkers, the order of the positions; unused ones are H or OH. Bridge positions count the residues as written; N and C are the ends. * marks the point of attachment. C20 diacid = O=C(O)CCCCCCCCCCCCCCCCCCC(=O)*; γGlu = O=C(O)[C@H](CCC(=O)[*:2])N[*:1]
T1: human calcitonin receptor (human, UniProt P30988 25-474)
T1 construct: whole, on cells; Cell membranes of a stably transfected BHK cell line (Assay VII); also called hCTR; hCT
T1 sequence (looked up): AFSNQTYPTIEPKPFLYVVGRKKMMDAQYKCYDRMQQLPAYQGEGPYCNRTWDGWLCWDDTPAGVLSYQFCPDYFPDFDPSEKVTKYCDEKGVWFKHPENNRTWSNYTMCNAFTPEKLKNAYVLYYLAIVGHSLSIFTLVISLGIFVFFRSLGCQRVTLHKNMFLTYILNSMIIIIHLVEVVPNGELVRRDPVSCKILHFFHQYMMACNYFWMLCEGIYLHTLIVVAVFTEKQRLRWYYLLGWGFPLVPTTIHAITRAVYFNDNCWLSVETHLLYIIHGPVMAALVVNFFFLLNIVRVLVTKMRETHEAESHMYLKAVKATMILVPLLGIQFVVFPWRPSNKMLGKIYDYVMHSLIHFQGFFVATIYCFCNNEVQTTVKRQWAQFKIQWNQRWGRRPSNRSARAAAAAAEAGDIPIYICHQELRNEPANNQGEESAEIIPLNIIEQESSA

T2: rat calcitonin receptor (rat, UniProt P32214 25-516)
T2 construct: whole, on cells; Cell membranes of transiently transfected BHK tk'ts 13 cells (Assay VIII); also called rCTR; rCT
T2 sequence (looked up): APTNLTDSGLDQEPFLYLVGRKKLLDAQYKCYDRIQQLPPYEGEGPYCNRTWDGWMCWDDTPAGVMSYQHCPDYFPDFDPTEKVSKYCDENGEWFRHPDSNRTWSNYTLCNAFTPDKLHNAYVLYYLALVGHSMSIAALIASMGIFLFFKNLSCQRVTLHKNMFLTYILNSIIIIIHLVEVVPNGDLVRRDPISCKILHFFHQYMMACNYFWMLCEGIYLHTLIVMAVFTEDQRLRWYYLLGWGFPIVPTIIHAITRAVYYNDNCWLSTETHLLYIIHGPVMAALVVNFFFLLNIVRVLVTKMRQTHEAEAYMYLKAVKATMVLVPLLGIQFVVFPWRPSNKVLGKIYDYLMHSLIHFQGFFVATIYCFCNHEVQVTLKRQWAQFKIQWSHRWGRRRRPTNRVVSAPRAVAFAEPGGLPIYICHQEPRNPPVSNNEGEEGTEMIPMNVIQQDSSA

T3: rat amylin receptor (rat calcitonin receptor + rat RAMP 3) (rat, UniProt P32214 25-516; Q9JJ73 23-147)
T3 construct: whole, on cells; Cell membranes of transiently transfected BHK tk'ts 13 cells (Assay VI); also called rAmylin-R; rat amylin 3(a) receptor
T3 sequence (looked up) 1: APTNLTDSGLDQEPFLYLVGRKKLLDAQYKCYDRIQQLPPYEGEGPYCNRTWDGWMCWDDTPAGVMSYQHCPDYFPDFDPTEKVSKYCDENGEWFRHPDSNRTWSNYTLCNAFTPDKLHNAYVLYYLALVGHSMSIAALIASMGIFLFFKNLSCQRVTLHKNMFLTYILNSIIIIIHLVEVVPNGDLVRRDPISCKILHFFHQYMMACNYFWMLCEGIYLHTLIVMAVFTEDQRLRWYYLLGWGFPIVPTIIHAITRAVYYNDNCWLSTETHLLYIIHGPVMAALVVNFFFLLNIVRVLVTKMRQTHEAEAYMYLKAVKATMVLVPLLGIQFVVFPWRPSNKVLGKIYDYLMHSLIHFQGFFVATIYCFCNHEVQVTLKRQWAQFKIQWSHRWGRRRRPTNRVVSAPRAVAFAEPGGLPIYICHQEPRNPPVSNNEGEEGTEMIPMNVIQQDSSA
T3 sequence (looked up) 2: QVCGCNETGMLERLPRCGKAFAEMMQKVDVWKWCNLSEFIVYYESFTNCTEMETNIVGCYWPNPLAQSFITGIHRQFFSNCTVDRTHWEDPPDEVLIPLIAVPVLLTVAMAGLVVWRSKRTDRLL

B1: N^α1 N^α1-[(4S)-4-carboxy-4-[[(4S)-4-carboxy-4-(19-carboxynonadecanoylamino)butanoyl]amino]butanoyl]-[Glu14,Arg17,Pro21,Pro27]-h-amylin (peptide)
peptide: {C20 diacid-γGlu-γGlu}-KCNTATCATQRLAEFLRHSSPNFGAIPSSTNVGSNTY-NH2
modifications: disulfide 2-7
SMILES: CC[C@H](C)[C@H](NC(=O)[C@H](C)NC(=O)CNC(=O)[C@H](Cc1ccccc1)NC(=O)[C@H](CC(N)=O)NC(=O)[C@@H]1CCCN1C(=O)[C@H](CO)NC(=O)[C@H](CO)NC(=O)[C@H](Cc1c[nH]cn1)NC(=O)[C@H](CCCNC(=N)N)NC(=O)[C@H](CC(C)C)NC(=O)[C@H](Cc1ccccc1)NC(=O)[C@H](CCC(=O)O)NC(=O)[C@H](C)NC(=O)[C@H](CC(C)C)NC(=O)[C@H](CCCNC(=N)N)NC(=O)[C@H](CCC(N)=O)NC(=O)[C@@H](NC(=O)[C@H](C)NC(=O)[C@@H]1CSSC[C@H](NC(=O)[C@H](CCCCN)NC(=O)CC[C@H](NC(=O)CC[C@H](NC(=O)CCCCCCCCCCCCCCCCCCC(=O)O)C(=O)O)C(=O)O)C(=O)N[C@@H](CC(N)=O)C(=O)N[C@@H]([C@@H](C)O)C(=O)N[C@@H](C)C(=O)N[C@@H]([C@@H](C)O)C(=O)N1)[C@@H](C)O)C(=O)N1CCC[C@H]1C(=O)N[C@@H](CO)C(=O)N[C@@H](CO)C(=O)N[C@H](C(=O)N[C@@H](CC(N)=O)C(=O)N[C@H](C(=O)NCC(=O)N[C@@H](CO)C(=O)N[C@@H](CC(N)=O)C(=O)N[C@H](C(=O)N[C@@H](Cc1ccc(O)cc1)C(N)=O)[C@@H](C)O)C(C)C)[C@@H](C)O
notes: Acylated analogue of human amylin; also called compound 15
B2: N^α1-[2-[2-[2-[[2-[2-[2-[[(4S)-4-carboxy-4-(19-carboxynonadecanoylamino)butanoyl]amino]ethoxy]ethoxy]acetyl]amino]ethoxy]ethoxy]acetyl]-[Glu14,Arg17,Pro21,Pro27 … (peptide)
peptide: KCNTATCATQRLAEFLRHSSPNFGAIPSSTNVGSNTY
modifications: C20 diacid-gGlu-2xOEG on alpha-amino of the N-terminal residue; Cys2-Cys7 disulfide; C-terminal amide (as human amylin)
notes: Acylated analogue of human amylin; also called compound 19
B3: N^α1-[(4S)-4-carboxy-4-(19-carboxynonadecanoylamino)butanoyl]-[Arg17,Pro21,Pro27,Arg34]-h-amylin (peptide)
peptide: KCNTATCATQRLANFLRHSSPNFGAIPSSTNVGRNTY
modifications: C20 diacid-gGlu on alpha-amino of the N-terminal residue; Cys2-Cys7 disulfide; C-terminal amide (as human amylin)
notes: Acylated analogue of human amylin; also called compound 39
B4: N^α1-[(4S)-4-carboxy-4-(19-carboxynonadecanoylamino)butanoyl]-[Arg17,Pro21,Pro27,Glu35]-h-amylin (peptide)
peptide: KCNTATCATQRLANFLRHSSPNFGAIPSSTNVGSETY
modifications: C20 diacid-gGlu on alpha-amino of the N-terminal residue; Cys2-Cys7 disulfide; C-terminal amide (as human amylin)
notes: Acylated analogue of human amylin; also called compound 23
B5: N^α1-[(4S)-4-carboxy-4-(19-carboxynonadecanoylamino)butanoyl]-[Arg17,Pro21,Pro27,His34]-h-amylin (peptide)
peptide: KCNTATCATQRLANFLRHSSPNFGAIPSSTNVGHNTY
modifications: C20 diacid-gGlu on alpha-amino of the N-terminal residue; Cys2-Cys7 disulfide; C-terminal amide (as human amylin)
notes: Acylated analogue of human amylin; also called compound 40
B6: N^α1-[(4S)-4-carboxy-4-(19-carboxynonadecanoylamino)butanoyl]-[Arg17,Pro21,Pro27,Lys35]-h-amylin (peptide)
peptide: KCNTATCATQRLANFLRHSSPNFGAIPSSTNVGSKTY
modifications: C20 diacid-gGlu on alpha-amino of the N-terminal residue; Cys2-Cys7 disulfide; C-terminal amide (as human amylin)
notes: Acylated analogue of human amylin; also called compound 34
B7: N^α1-[(4S)-4-carboxy-4-(19-carboxynonadecanoylamino)butanoyl]-[Arg17,Pro21,Pro27,Pro31,Glu35]-h-amylin (peptide)
peptide: {C20 diacid-γGlu}-KCNTATCATQRLANFLRHSSPNFGAIPSSTPVGSETY-NH2
modifications: disulfide 2-7
SMILES: CC[C@H](C)[C@H](NC(=O)[C@H](C)NC(=O)CNC(=O)[C@H](Cc1ccccc1)NC(=O)[C@H](CC(N)=O)NC(=O)[C@@H]1CCCN1C(=O)[C@H](CO)NC(=O)[C@H](CO)NC(=O)[C@H](Cc1c[nH]cn1)NC(=O)[C@H](CCCNC(=N)N)NC(=O)[C@H](CC(C)C)NC(=O)[C@H](Cc1ccccc1)NC(=O)[C@H](CC(N)=O)NC(=O)[C@H](C)NC(=O)[C@H](CC(C)C)NC(=O)[C@H](CCCNC(=N)N)NC(=O)[C@H](CCC(N)=O)NC(=O)[C@@H](NC(=O)[C@H](C)NC(=O)[C@@H]1CSSC[C@H](NC(=O)[C@H](CCCCN)NC(=O)CC[C@H](NC(=O)CCCCCCCCCCCCCCCCCCC(=O)O)C(=O)O)C(=O)N[C@@H](CC(N)=O)C(=O)N[C@@H]([C@@H](C)O)C(=O)N[C@@H](C)C(=O)N[C@@H]([C@@H](C)O)C(=O)N1)[C@@H](C)O)C(=O)N1CCC[C@H]1C(=O)N[C@@H](CO)C(=O)N[C@@H](CO)C(=O)N[C@H](C(=O)N1CCC[C@H]1C(=O)N[C@H](C(=O)NCC(=O)N[C@@H](CO)C(=O)N[C@@H](CCC(=O)O)C(=O)N[C@H](C(=O)N[C@@H](Cc1ccc(O)cc1)C(N)=O)[C@@H](C)O)C(C)C)[C@@H](C)O
notes: Acylated analogue of human amylin; also called compound 28
B8: N^α1-[(4S)-4-carboxy-4-(19-carboxynonadecanoylamino)butanoyl]-[His14,Arg17,Pro21,Pro27,Glu35]-h-amylin (peptide)
peptide: {C20 diacid-γGlu}-KCNTATCATQRLAHFLRHSSPNFGAIPSSTNVGSETY-NH2
modifications: disulfide 2-7
SMILES: CC[C@H](C)[C@H](NC(=O)[C@H](C)NC(=O)CNC(=O)[C@H](Cc1ccccc1)NC(=O)[C@H](CC(N)=O)NC(=O)[C@@H]1CCCN1C(=O)[C@H](CO)NC(=O)[C@H](CO)NC(=O)[C@H](Cc1c[nH]cn1)NC(=O)[C@H](CCCNC(=N)N)NC(=O)[C@H](CC(C)C)NC(=O)[C@H](Cc1ccccc1)NC(=O)[C@H](Cc1c[nH]cn1)NC(=O)[C@H](C)NC(=O)[C@H](CC(C)C)NC(=O)[C@H](CCCNC(=N)N)NC(=O)[C@H](CCC(N)=O)NC(=O)[C@@H](NC(=O)[C@H](C)NC(=O)[C@@H]1CSSC[C@H](NC(=O)[C@H](CCCCN)NC(=O)CC[C@H](NC(=O)CCCCCCCCCCCCCCCCCCC(=O)O)C(=O)O)C(=O)N[C@@H](CC(N)=O)C(=O)N[C@@H]([C@@H](C)O)C(=O)N[C@@H](C)C(=O)N[C@@H]([C@@H](C)O)C(=O)N1)[C@@H](C)O)C(=O)N1CCC[C@H]1C(=O)N[C@@H](CO)C(=O)N[C@@H](CO)C(=O)N[C@H](C(=O)N[C@@H](CC(N)=O)C(=O)N[C@H](C(=O)NCC(=O)N[C@@H](CO)C(=O)N[C@@H](CCC(=O)O)C(=O)N[C@H](C(=O)N[C@@H](Cc1ccc(O)cc1)C(N)=O)[C@@H](C)O)C(C)C)[C@@H](C)O
notes: Acylated analogue of human amylin; also called compound 30

Tests used:
[1] = target: T1, human calcitonin receptor; assay: ratio IC50 human calcitonin receptor / IC50 human amylin receptor
Procedure: The resulting pellet was resuspended, homogenized and centrifuged (20.000 rpm, 15 min) in a buffer containing 20 mM Na-HEPES and 0.1 mM EDTA (pH 7.4, buffer 2). The resulting pellet was resuspended in buffer 2 and protein concentration was measured (BCA protein Assay, Pierce). The homogenate was kept cold during the whole procedure. The membranes were kept at −80° C. until use. The assay was performed in a 384 well Optiplate (PerkinElmer) in a total volume of 40 ul. Membranes were mixed with SPA beads. Final concentration of membranes 35 ng/μL final and SPA beads was 0.05 mg/well. Test-compounds were dissolved in DMSO and further diluted in assay buffer (50 mM Hepes, pH 7.4, 1 mM CaCl2, 5 mM MgCl₂, 0.1% OA and 0.02% Tween20). […] The final mixture was incubated with shaking at 400 rpm for 120 min at 25° C. prior to centrifugation (1500 rpm, 10 min). Samples were analyzed on TopCounter™ (Packard). The IC₅₀ was calculated using (one site binding competition analysis) GraphPad Prism5 as a measure of receptor affinity.
Membranes were prepared in the following way; the cells were rinsed with PBS and incubated with Versene for approximately 5 min before harvesting. The cells were flushed with PBS and the cell-suspension was centrifuged for 5 min at 1000 rpm. Cells were homogenized (Ultrathurrax) in a buffer containing 20 mM Na-HEPES and 10 mM EDTA (pH 7.4) and centrifuged at 20.000 rpm for 15 min. The resulting pellet was resuspended, homogenized and centrifuged (20.000 rpm, 15 min) in a buffer containing 20 mM Na-HEPES and 0.1 mM EDTA (pH 7.4, buffer 2). The resulting pellet was resuspended in buffer 2 and protein concentration was measured (BCA protein Assay, Pierce). The homogenate was kept cold during the whole procedure. The membranes were kept at −80° C. until use. Assay was performed in a 384 well Optiplate (PerkinElmer) in a total volume of 40 ul. Membranes were mixed with SPA beads.

rat calcitonin receptor [2] = target: T2, rat calcitonin receptor; assay: SPA competition vs 125I-calcitonin, membranes with rat CTR (Assay VIII)
rat calcitonin receptor [3] = target: T2, rat calcitonin receptor; assay: ratio IC50 rat calcitonin receptor / IC50 rat amylin receptor
[4] = target: T3, rat amylin receptor (rat calcitonin …); assay: SPA competition vs 125I-rat amylin, membranes with rat CTR + rat RAMP3 (Assay VI)

Binder	Ratio hCT/hAmylin binding [1]	IC50 (rat calcitonin receptor [2])	Ratio rCT/rAmylin binding (rat calcitonin receptor [3])	IC50 [4]
B1	26			
B2	36.7	95.6 nM	93.6	1.02 nM
B3	29	96.4 nM	54.5	1.77 nM
B4	25	79.9 nM	71.3	1.12 nM
B5	31.1	69.2 nM	46.2	1.5 nM
B6	64.4	89.2 nM	52	1.72 nM
B7	20.5	54.9 nM	44.9	1.22 nM
B8	23.6	114 nM	36.1	3.14 nM
